The DeepSol protein solubility set

assay: soluble on expression in E. coli; label from the status in PepcDB or PDB records

| Sequence | soluble on expression in E. coli |
| --- | --- |
| INLPWYLSPIAIPVTQILSAVSPLPRYAPGHKPYFPKPFEDNPLSQSAGRYQWFRNLYTEKPELQVGGPSTRWVWQGLMAAKQCFLLTRQVKVPVLLVQAGNDRIVSNLAQKRFIEKLRKTNPHAALLSIEGAQHEILFETDQYRNQALDAIFRFMDDPTSSSDEKMQ | not soluble |
| ISAVIVGTAEDIYSRVLALMCQRKGAVSICLQHGALMGDEAFIPVFTTYQAVFGAYEAEWFIRKGCKPEQILVTGHPRFDQIFNRTPMDMSIFYRKLAFQPTKKIVLIATQPFSEDFYSGVLQGLSDQKQLQIIIKPHPWEIGKNKLDLYHEAAKKHQACRVIKKELELYDLLPYVDAAVTQTSTVGLEAMLFQKPVLIGKSSGNRSYPYYESLGDFMFDQPDELAHTLVEVLRSP | not soluble |
| ITERRQRQQRIEALHDTTRELMHVESREAAAELVVETARDLLGLPLSAVFLADESADALRPTAVTDQAQAIIDDHPTFSEGDSLVWEVFDSGEQRVFNDVSTHPNRYNPDTDVCSELLIPLGDHGVLIAASTDAAAFEDASVSLMRTLAANTEEALSRLDRQQELRTLTER | not soluble |
| ITLKYNYTVTLKDDGLYDGVFYDHYNDQLVTKISYNHETRHGNVNFRADWFNISRSPHTPGNDYNFNFWYSLMKETLEEINKNDSTKTTSLSLITGCYETGLLFGSYGYVETANGPLARYHTGDKRFTKMTHKGFPKVGMLTVKNTLWKDVKAYLGGFEYMGCSLAILDYQKMAKGKIPKDTTPTVKVTGNELEDGNMTLECTVNSFYPPDVITKWIESEHFKGEYKYVNGRYYPEWGRKSNYEPGEPGFPWNIKKDKDANTYSLTDLVRTTSKMSSQPVCVVFHDTLEAQVYTCSEGCNGELYDHLYRKTEEGEGGSHHHHHH | soluble |
| ITLNSEPKCINNIKSGQYERYDTNNTELNRVLGGGLVKGSITLISGAPGIGKSTLLLQICQDIALKYGKVLYVSGEESEHQIKMRGDRLGVTSANIYILAETNMESIERHVENIKPAFVIIDSIQTLYKDQITSAPGSVSQVRECANDIMRIAKTDNIPFFIVAHVTKQGELAGPRVLEHIVDTVLTFEGQRTEEFRILRTVKNRFGTTSEIGVFEMKEEGL | not soluble |
| IVGLRVGAAAEFALSNDGFYLAPGLAYTMRGAKMESLSETTTRLHYLQIPVNAGMRFSFADNMAISLEAGPYFAYGVAGTIKTKVAGVTASVDAFGDNGYNRFDLGLGLSAALSYDRYYVQIGYEHGLLNMLKDAPDKTSLRNHDFFVGLGVRF | not soluble |
| KDTIALVVSTLNNPFFVSLKDGAQKEADKLGYNLVVLDSQNNPAKELANVQDLTVRGTKILLINPTRSDAVGNAVKMANQANIPVITLDRQATKGEVVSHIASDNVLGGKIAGDYIAKKAGEGAKVIELQGIAGTSAARERGEGFQQAVAAHKFNVLASQPADFDRIKGLNVMQNLLTAHPDVQAVFAQNDEMALGALRALQTAGKSDVMVVGFDGTPDGEKAVNDGKLAATIAQLPDQIGAKGVETADKVLKGEKVQAKYPVDLKLVVKQ | soluble |
| KEKARAMRVNKRAPQMDWNRKREIFSNF | soluble |
| KEQILSSEQLARKMMLELGDKKQEHLVAIYMDTQNRIIEQRTIFIGTVRRSVAEPREILHYACKNMATSLIIIHNHPSGSPKPSESDLSFTKKIKRSCDHLGIVCLDHIIVGKNKYYSFREEADIL | soluble |
| KGDVDEKLLDKGIEAVLDQTDYVNGGFGSAPKFHHAKAVELLLTHHFFTGDEEVLKAAEITLDAMARGGIYDHLLGGFFRYSTDAKWVTPHYEKMLYDNAELLYLYSIAYALTGKRLYQKIADGIVEYYRKFGCSNEGGFYASQDADIGELDEGGYYLFSDRELKEILDEREFRIATLYYDIQGERKLPRIFLTEEEISKILGVSVEEVERAVNSARRKMLEFREQREMPYIDTTIYAGWNGLMIEALCMHHKVFGDNWSLEMAEKTANRLLKEFWDGRELLHTHNVEGLSEDYIFFARGLLALFEVTQRHEYLEKCFEIVDSAVEKFWDGEDGGFFD | not soluble |
| KGIFSWESALTATYNKNEILDLNSETPMFINQIGNSYVTMLKAGYPINVFYGYVTDGLFQNWGEVNRHATQPGAAPGDIRFRDLNNDGVINDEDRTILGNPNPNWFFSLSNNLSYKGWELSVFLQGVAGNKIYNANNVDNEGMAAAYNQTTAVLNRWTGEGTSYSMPRAIWGDPNQNCRVSDRFVENGSYLRLKNITLSYTLPKKWLQKIQLENARISFSCENVATITRYSGFDPEVDVNGIDSSRYPISRTFSMGLNFNF | not soluble |
| KGYDSHKIALAQSETEMRNLSHSLAEHATHTFQGADVVLDDIVSFMKWRPHPSPVFNERLRALADNLPQLSDVAILDADGQLTYASVKPVPALDNSDRSYFRYHRANDDHTLLITGPIQSRTSGVWVFVVSRRLETTDGKFFGVVVATIESEYFSTFYKTFDLGPGGSISLLHSDGRLLIQWPSLQTGRDMANMVLFQKALPRSPDGYYLTVSPFDGLTKYLAYRRVSRYPLVVTVARTEDSVLSGWREAVRSD | soluble |
| KIYSGRILIPLQHILKELKRIRANSLNRRLKTTGNNDELEDMIETLNSMLDRLDSAFKAEKSFVSHASHELNNPITAIQGECEISLLKERSTGEYIEALQRISSESKRISNLIRHLLFLSRQDEELIKSNMEAMSLPDMLNDLIKMNERIRLHYQETGKAAT | not soluble |
| KKDFTWNATVNFSSNQSKVLSLGAETQMLEGRPVGSASGSENVLIKKGYPLGLFYGLQMEGIRSNWHSDYNGIGSADSPWWYATEREMPYGFPSFADTNGDGKVDMSDRVVIGDVNPVFIGGLNTRLRWKFIELAMDFSWSYGNDIINGNVYNLMNNGDIRNKSAVYYKDAWFANNPTGTFTGPGAIDWSGYMWAASNSEMVEDGSFLKMNNLAVTFRMPKNILKAWKIKDLALTYTINNVFCLTNYSGYDPEVRSGSSVNNRILPGVDISAYPYARSHIFSLNFKY | not soluble |
| KKISQYACQRRTTLNNYNQLFTDALDILAENDELRENEGSCLAFMRASSVLKSLPFPITSMKDTEGIPCLGDKVKSIIEGIIEDGESSEAKAVLNDERYKSFKLFTSVFGVGLKTAEKWFRMGFRTLSKIQSDKSLRFTQMQKAGFLYYEDLVSCVNRPEAEAVSMLVKEAVVTFLPDALVTMTGGFRRGKMTGHDVDFLITSPEATEDEEQQLLHKVTDFWKQQGLLLYCDILESTFEKFKQPSRKVDALDHFQKCFLILKLDHGRVHSEKSGQQEGKGWKAIRVDLVMCPYDRRAFALLGWTGSRQFERDLRRYATHERKMMLDNHALYDRTKRVFLEAESEEEIFAHLGLDYIEPWERNA | soluble |
| KLKIVEVPQEELFRDDDLLKSVYGILVTAHYRNSPDDLMLLGDMAFQKVIVGYSSENPVAVCQVVYEGGLTDKQIWDISNGLKNEGHLIPHRLIKYMRALDFGKLKGWRIMRIAVSPENQGKGIGSRVIEEVIKMAKGVDWIGSSFVADYSVLRFWIKNGFLPVYLSSIKNEE | not soluble |
| KNAELSIKLNKEEYQANEDIEIQITAPYTGSGLITIERDKVYAVHWFKTEAQNSVQTIRIPADFQGNGYVNVAFIRDWESPELFISPLSYSVAPFNVNHDKHDIKIGLKTPELARPGESFTIDYHTDKPGKIIVFAVDEGILQVANY | not soluble |
| KRKEMISARLGDGLSYLYMASATLKKYEDEGRQQGDLNFVHYAVQYCLYNAAKSLNEAYANFPVKYVGGVLKGLLFPLGNHFDKPSDELSVSIAEAMMTPGVQRDRLTHLCYIGKSENDSVGLMENAFLAMYDVKPLERKLMKAAKDGKVARKGLLPDRLQQALDAGVLTEQEVEKITAADQLRYKAIQVDHFSHDFSEVRTDSPKKSHLNPAA | not soluble |
| KSIHDAGQRVQIYFSDAAGLVAGRTTIRYQGLEVGMVRDINLSEDLGSIYVDADIYPEATKLLNDKTRFWLVKPTASLTGVSGLDALVSGNYISIQPGDGQEFETTFHALDSAPTDLRVSQGLNIKLKSRDLGGVSIGSQIVYKKIPIGAVYSYQLDEDAKSITIQANIQEQYRHIINDRSRFWNVSGIGASIGFEGVDVRLESMSALLGGAIAVDSPDDGEPVEENTEFRLYKDLKTAGRGIAIKIALPDDNKVSSEGAPIMYRGIEIGQVTDLSLSEGREVILASAAIQPAFSDMLTTGTRFVLEEAKVSLSGVENIANLVRGNFLTIVPGDGERSRRFTAIRKNVFNQQQEKSIAIRLISDNSFGLDSGAN | not soluble |
| KYRSVFDIIGPVMIGPSSSHTAGAARIGRVARSLFGREPERIIVSFYGSFAETYKGHGTDVAIIGGLLDFDTFDERIKTAIQIAEAKGIDIEFRVEDAVPVHPNTAKITISDEKGELELTGISIGGGKIEITELNGFELRLSGNHPAILVVHNDKFGTIAGVANVLAKFSINVGHMEVARKDIGQLALMTIEVDQNIDDHILDELSKLPN | not soluble |
| LAGIAGVDRDPPGWPQHSHLLAGDPERFRHQLQRAETTNSIECFVAEWHHAGVAADMTRPWPTVVQGGAGQRRRRDVEPDRKTPVRWMSGQRLSEITWPTTDIEHSVGAAEVQRHRGAVPLGSGGDAAGKVEGGRTPQPFVQP | not soluble |
| LALHKVIMVGSGGVGKSALTLQFMYDEFVEDYEPTKADSYRKKVVLDGEEVQIDILDTAGLEDYAAIRDNYFRSGEGFLLVFSITEHESFTATAEFREQILRVKAEEDKIPLLVVGNKSDLEERRQVPVEEARSKAEEWGVQYVETSAKTRANVDKVFFDLMREIRTKKMSENK | soluble |
| LALYRCAADVQAALDYYFDSETEREDTLEAVIGQFEVKAQSVIAYIKNQEITEKMLEGHIRRMTGKLKAVKAQNQSLKDYLARNMQAAGITEIKADDGTFKASFRKSEAVVILDEAQIPAEFMREAVKTEPDKTAIRKAIESGRQVAGAKIEGRKNLQIR | not soluble |
| LDEYQVSQDRLVESEERYRQLVESAPDAVLIHCDGRYVFANPAALRLYGADTADQLLGREITDFVHPNSRQVVAERIKLLYQERSPAPLCEQQIVRLDGTVVDVEVVGIPYSHQGRPAVQAVLREIT | not soluble |
| LEIPTSTVVKETLTQLSAHRALLTSNETLRLPVPTHKNHQLCIGEIFQGLDILKNQTVRGGTVERLFQNLSLIKKYIDRQKEKCGEERRRTRQFLDYLQEFLGVLSTEWAIEG | soluble |
| LESLEVMIMLDTLRAINNPLNDYALVALLRSPMFNFNEDDLTRIAVQADKGQFYDKLLAAHTKSGLHPEVVMQGLEAKLTLFTETLADWRDYSKCHSIYDLIWKIYNDRFYYDYVGGLPRAEQRQANLYALALRANAYEKTGFKGLSRFIGMI | not soluble |
| LETSWIKPGQASWEWWNDAAPYGPDVNFVSGYNLETYKYYIDFASKYGIRYIIMDEGWAKSTRDPYTPNAKVDVHELIRYAEKKNVGIVLWLTWLTVENNMDLFKTFSEWGVKGVKIDFMDRSDQWMMNFYERVAAEAAKYKLFVDFHGSVSPKGLEYKYPNVLSYEGVRGMEQMGGATPDNSIFMPFMRNAVGAMD | not soluble |
| LGEALNIYTPHRIVAFDNSNIQGTNPVSAMIVFIDGKPYKKEYRKYKIKTVTGPDDYGSMREVVRRRYTRVLRENLPLPDLIIIDGGKGQINAARDVIENELGLDIPIAGLAKDEKHRTSNLLIGDPLEVAYLERNSQEFYLLQRIQDEVHRFAI | not soluble |
| LGTQMGIQTPIRIEAFDNSNIQGVDPVSAMVTFVDGKPDKKNYRKYKIKTVKGPDDYKSMREVVRRRYSRVLNEGLPLPDLIIVDGGKGHMNGVIDVLQNELGLDIPVAGLQKNDKHQTSELLYGASAEIVPLKKNSQAFYLLHRIQDEVHRFAI | not soluble |
